1 molecule from patent US20090257987A1, “Method of generating dopamine-secreting cells” (Ramot At Tel Aviv University Ltd., priority 2008, published 2009) can be followed below.

Format in all cases: cell-based
The test system of test [1] is human MSCs. The experiment in a line: Bright-light microscopy of cell morphology after induction. The note with it: from MSC fibroblast shape. As to the method:
(§1) Induction of differentiation: The differentiation protocol was composed of 2 steps. In step 1, cells were transferred to serum-free medium (DMEM) supplemented with 2 mM glutamine, 100 μg/ml streptomycin, 100 units/ml penicillin, 12.5 units/ml nystatin (Biological Industries), N2 supplement (Invitrogen, New Haven, Conn.) and 20 ng/ml fibroblast growth factor 2 and epidermal growth factor (both from R&D Systems, Minneapolis, Minn.) for 48-72 hours. In step 2, the medium was changed to Basic induction medium containing Neurobasal, B27 (both from Invitrogen), in addition to 1 mM dibutyryl cyclic AMP (dbcAMP), 3-isobutyl-1-methyl-xanthine (IBMX), and 200 μM ascorbic acid (all from Sigma, St Louis, Mo.). The following factors were added to the Basic induction medium in different combinations: brain-derived neurotrophic factor (BDNF; 50 ng/ml), glial-derived neurotrophic factor (GDNF;10 ng/ml), neurturin (100 ng/ml), neurotrophin 3 (NT3; 50 ng/ml), and fibroblast growth factor 8 (FGF8; 100 ng/ml (all from Cytolab, Rehovot, Israel); transforming growth factor β3 (TGFβ3; 2 ng/ml), sonic hedgehog (Shh; 500 ng/ml, both from R&D); estrogen (0.1 μM, Sigma); and all-trans-retinoic acid (RA; 0.1 μM, Sigma).

Test [2] has as its system human MSCs. The experiment in a line: Real-time quantitative PCR of Nurr1 and GAD67. The settings on record: real-time PCR versus GAPDH. As to the method: Induction of differentiation: The differentiation protocol was composed of 2 steps. In step 1, cells were transferred to serum-free medium (DMEM) supplemented with 2 mM glutamine, 100 μg/ml streptomycin, 100 units/ml penicillin, 12.5 units/ml nystatin (Biological Industries), N2 supplement (Invitrogen, New Haven, Conn.) and 20 ng/ml fibroblast growth factor 2 and epidermal growth factor (both from R&D Systems, Minneapolis, Minn.) for 48-72 hours. […]
RNA isolation and cDNA synthesis: Total RNA was isolated by a commercial TriReagent (Sigma). The amount and quality of RNA was determined with the ND-1000 spectrophotometer (NanoDrop, Wilmington, Del.). […]
Real-time quantitative reverse transcription polymerase chain reaction (PCR): Real-time quantitative PCR of the desired genes was performed in an ABI Prism 7700 sequence detection system (Applied Biosystems, Foster City, Calif.) using Syber Green PCR Master Mix (Applied Biosystems) and the following primers: glyceraldehyde-3-phosphate dehydrogenase (GAPDH) sense CGACAGTCAGCCGCATCTT (SEQ ID NO: 1), GAPDH antisense […] […] For each gene, the specificity of the PCR product was assessed by verifying a single peak in the melting curve analysis. […] Quantitative calculations of the gene of interest versus GAPDH were done according to the ΔΔCT method, as instructed in the user bulletin of the ABI Prism 7700 sequence detection system (updated 10/2001).
On the technique in general: Real-time PCR tracks product formation cycle by cycle.

For test [3], the system named is human MSCs. The experiment in a line: Western blot analysis of TH protein expression after differentiation protocols. The settings on record: result in words. On the procedure: MSC isolation, culture, and characterization: Fresh bone marrow aspirates harvested from the iliac crests of adult donors (age 19-76) were diluted with Hanks' balanced salt solution. Mononuclear cells were isolated by centrifugation in Unisep-Maxi tubes (Novamed, Jerusalem, Israel) by density gradient. The cells were then plated in Dulbecco's Modified Eagle's Medium (DMEM) supplemented with 15% fetal bovine serum (FBS), 2 mM glutamine, 100 μg/ml streptomycin, 100 units/ml penicillin, 12.5 units/ml nystatin (Biological Industries, Beit HaEmek, Israel) in polystyrene plastic 75-cm^2 tissue-culture flasks. After 24 hours, nonadherent cells were removed. The medium was changed every 3-4 days. Adherent cells were cultured to 70%-90% confluence and reseeded at a density of 5,000-10,000 cells/cm^2. The cells were maintained at 37° C. in a humidified 5% CO2 incubator. The MSCs were characterized for their cell-surface phenotype and their mesenchymal differentiation capacity, as previously described (Blondheim er al., 2006, Stem Cells Dev 15:141-164).
as §1
Western blot: Total protein was extracted by suspending the harvested cells in lysis buffer containing 10 mM Tris base (U.S. Biochemical Corporation, Cleveland, Ohio), 5 mM EDTA (Merck, Whitehouse Station, N.J.), 140 mM sodium chloride (NaCl; BioLab, Jerusalem, Israel), 10 mM sodium fluoride (NaF; Sigma), 0.5% NP 40 (U.S. Biochemical Corporation), and 1 μM phenylmethylsulfonyl fluoride (PMSF; Sigma). Following incubation on ice for 30 minutes, the mixture was centrifuged and the supernatants were collected. Protein content was determined by the BCA protein assay kit (Pierce, Rockford, Ill.). Twenty-five micrograms of protein from each sample were subjected to sodium dodecyl-sulfate (SDS)-polyacrylamide gel electrophoresis (PAGE) (12.5% acrylamide), followed by electrophoretic transfer to nitrocellulose membrane (Schleicher & Schuell, Dassel, Germany). Membranes were probed by mouse anti-TH (1:10,000, Sigma) and mouse anti β-actin (1:10,000, Chemicon, Billerica, Mass.) and then by goat anti-mouse horseradish peroxidase conjugated antibody (1:10,000) (Jackson, West Grove, Pa.) and rabbit anti-emerin (1:5,000, Santa Cruz Biotechnology, Santa Cruz, Calif.), followed by goat anti-rabbit horseradish peroxidase conjugated secondary antibody (1:10,000, Sigma). Adequate controls included HeLa cells (ATCC, Manassas, Va.) as negative control and neuroblastoma M17 cells (BE (2)-M17, ATCC) as positive control. Proteins of interest were detected using the enhanced Super Signal® chemiluminescent detection kit (Pierce).
Background: Immunoblotting shows a protein as a band on a membrane.

B1: brain-derived neurotrophic factor (protein, UniProt P23560 19-247, looked up)
Neurotrophic factor BDNF …: APMKEANIRGQGGLAYPGVRTHGTLESVNGPKAGSRGLTSLADTFEHVIEELLDEDQKVRPNEENNKDADLYTSRVMLSSQVPLEPPLLFLLEEYKNYLDAANMSMRVRRHSDPARRGELSVCDSISEWVTAADKKTAVDMSGGTVTVLEKVPVSKGQLKQYFYETKCNPMGYTKEGCRGIDKRHWNSQCRTTQSYVRALTMDSKKRIGWRFIRIDTSCVCTLTIKRGR
notes: brain-derived neurotrophic factor (50 ng/ml) added to the Basic induction medium
On to B1, for which, in the test with human MSCs [1], the cell morphology result is “neuron-like appearance”. For the same molecule, the GAD67 expression entry with human MSCs [2] is “down regulation”. The Nurr1 expression entry in the test with human MSCs [2] (compared to untreated MSCs) was “significant upregulation”. Also, the figures for the “TH protein expression level normalized to actin” value in the test with human MSCs [3] (listed as BDNF) and in the test on human MSCs [3] (listed as BDNF alone) were “directly affected the TH protein expression level” and “significant results”, respectively.
